Measured values reported in publication doi:10.1101/2023.06.08.544223.

Target: SPARDA complex (heterodimer of NbaAgo and DREN-APAZ), wild type (Novosphingopyxis baekryungensis)
Experiment: SEC

SPARDA complex (heterodimer of NbaAgo and DREN-APAZ), wild type
stoichiometry N: 2
